Assay results from the nanobody polyreactivity screen of Harvey et al. (2022).

Experiment: yeast display, Sf9 membrane polyspecificity reagent, FACS + sequencing; frameworks hold sequencing errors
In short: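 After 36–48 hours of galactose induction, yeast (Saccharomyces cerevisiae BJ5465) displaying a synthetic nanobody library were stained at 4 °C for 1 hour with 10% biotinylated, detergent-solubilized Sf9 membrane reagent. Streptavidin microbeads enriched the stained cells before FACS sorting into low and high (top ~1%) gates on anti-HA and streptavidin fluorescence. Each clone's polyreactivity label reflects its gate of origin.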

Sequence | polyreactivity (PSR sort gate)
QVQLVESGGGLVQAGGSLRLSCAASGNIFILNAMGWYRQAPGKERELVAAISTTGGSTYYADSVKGRFTISRDNAKNTVYLQMNSLKPEDTAVYYCAAYTYRYSTFYYWGQGTQVTVSS | high polyreactivity
QVQLVESGGGLVQAGGSLRLSCAASGNIFIRYAMGWYRQAPGKERDLVAAISQSGGGTSYADSVKGRFTISRDNAKNTVYLQMNSLKPEDTAVYYCNARYWRYPWRFGAWVGHDYWGQGTQVTVSS | low polyreactivity
QVQLVESGGGLVQAGGSLRLSCAASGNIFKYYTMGWYRQAPGKERELVAAITSGGRTNYADSVKGRFTISRDNAKNTVYLQMNSLKPEDTAVYYCAAYDVIYSQGFDYWGQGTQVTVSS | low polyreactivity
QVQLVESGGGLVQAGGSLRLSCAASGNIFLKNAMGWYRQAPGKERELVAAISKRGGSTYYAYSVKGRFTISRDNAKNTVYLQMNSLKPEDTAVYYCAAVLTKVWRGPEMDYWGQGTQVTVSS | high polyreactivity
QVQLVESGGGLVQAGGSLRLSCAASGNIFLTYAMGWYRQAPGKERELVAAISRGGRTYYADSVKGRFTISRDNAKNTVYLQMNRLKPEDTAVYYCNVQPDRISRYDYWGQGTQVTVSS | high polyreactivity
QVQLVESGGGLVQAGGSLRLSCAASGNIFLYYAMGWYRKAPGKERELVADIDSSGASTYYADSVKGRFTISRDNAKNTVYLQMNSLKPEDTAVYYCPAEFHWWYAGYDYGYWGLGTQVTVSS | low polyreactivity
QVQLVESGGGLVQAGGSLRLSCAASGNIFLYYAMRWYRQAPGKERELVADIDSSGASTYYADSVKVRFTISRDNAKNTVYLQMNSLKPEDTAVYYCAAEFHWWYAGYDYGYWGQGTKVTVSS | low polyreactivity
QVQLVESGGGLVQAGGSLRLSCAASGNIFNYNAMGWYRQATGNERELVAAISFSGGSTYYADSVKARFTISRDNAQNTVYLQMNSLKPEDTAVYYCAKAERNYFEYWGQGTQVTVSS | high polyreactivity
QVQLVESGGGLVQAGGSLRLSCAASGNIFPSYAMGWYRQAPGKERELVASINFSDGYTSYADSVKGRFTISRDNAKNTVYLQMNSLKPEDTAVYNCNADVWYYYYGFKGEEDYWGQGTQVTVSS | low polyreactivity
QVQLVESGGGLVQAGGSLRLSCAASGNIFRGYTMGWSRQAPGKEREWVATISWNGVSTFYADSVKGRFTISRDNAKNTVYVQMNSLKPEDTAVYYCAAYYPSHDYSGFWSDTYEYWGQGTQVTVSS | low polyreactivity
QVQLVESGGGLVQAGGSLRLSCAASGNIFRKYAMGWYRQAPGKERELVATISYSGGSTYYADSVKGRFTISRDNAKNTVYLQMNSLKPEDTAVYYCNAVKDLDSSFDYWGQGTQVTVSS | low polyreactivity
QVQLVESGGGLVQAGGSLRLSCAASGNIFRRYTLGWSRQAPGKERELVAAISSGGSTNYADSVKGRFTLSRDNAKNTVYLQMNSLKPEDTAVYYCAATRRYIQYGYDYWGQGTQVTVSS | high polyreactivity
QVQLVESGGGLVQAGGSLRLSCAASGNIFRSYMGWYRQAPGKEREFVAGITWRGGNTYYADSVKGRFTISRDNAKNTVYLQMNSLKPEDTAVYYCAAEIFVYYRWYDYWGQGTQVTVSS | high polyreactivity
QVQLVESGGGLVQAGGSLRLSCAASGNIFRVYDMGWYRQAPGKERELVATITSGGRTYYADSVKGRFTISRDNAKNTVYLQMNSLKPEDTAVYYCNVDVKGRPTFWSPFGRFDYWGQGTQVTVSS | high polyreactivity
QVQLVESGGGLVQAGGSLRLSCAASGNIFRYNAMGWYRQAPGKERELVAAISRGGSTKYADSVKGRFTISRDNAKNTVYLQMNSLKPEDTAVFYCARVKSTGSTFASPYDYWGQGTQVTVSS | high polyreactivity
QVQLVESGGGLVQAGGSLRLSCAASGNIFRYNARGWYRKAPGKERELVAAISSVGTTNSADSVKGRFTSSRDNAKNTFYLQMNSLKPEDTAVYYCNAAWSSYLSGGYESWGQGTQVTVSS | low polyreactivity
QVQLVESGGGLVQAGGSLRLSCAASGNIFSKYVRGWYRQARGKERELVAAITYSGGSTYYADSVKGRFTISRDNSKNTVYLQMNSLKPEDTGVYYCNAVRRRSSLKLDSWGQGTQVTVSS | high polyreactivity
QVQLVESGGGLVQAGGSLRLSCAASGNIFSRNAMGWYRQAPGKERELVASIRWSGGSTYADSVKGRFTISRDNAKNTVYLQMNSLKPEDTAVYYCAADSLHGRKFRGVDYWGQGTEVTVSS | low polyreactivity
QVQLVESGGGLVQAGGSLRLSCAASGNIFSRYAMGWYRQAPGKERELVAAISSSGGTTYYADSVKGRFTISRDNAKNTVYLHMNSLKPEDTAVYYCNARRRQIYSEFGYWGQGTQVTVSS | high polyreactivity
QVQLVESGGGLVQAGGSLRLSCAASGNIFSVYAMGWYRKAPGKERELVAAISSSGGRTYYADSVKGRFTISRDNEKNTVYLHMNSLKPEDTAVYYCAARSYTGQFVYWGQGTQVTVSS | high polyreactivity
QVQLVESGGGLVQAGGSLRLSCAASGNIFSWYAMGWYRQAPGKERELVAAITSGGRTYYADSVKGRFTISRDNAKNTVYLQMNSLKPEDTAVYYCNALRRRQYHDDYWGQGTQVTVSS | high polyreactivity
QVQLVESGGGLVQAGGSLRLSCAASGNIFSYYAMGWYRQAPGKERELVAAIRSSGVGTRYADSVKGRFTISRDNAKNTVYLQINSLKPEDTAVYYCAATGYTGYSRYYYWGQGTQVTVSS | high polyreactivity

Sequence | polyreactivity (PSR sort gate)
QVQLVESGGGLVQAGGSLRLSCAASGNIFSYYAMGWYRQAPGKETELVAAIRSSGVGTRYADSVKGRFTISRDNAKNTVYVQMNSLKPEDTAVYYCAATGYTGYSRYYYWGQGTQVTVSS | high polyreactivity
QVQLVESGGGLVQAGGSLRLSCAASGNIFTGYMGWYRQAPRKERELVAAISRSGGRTHYADSVKGRFTISRDNAKNTVYLQMNSLKPEDTAVYYCNADVRRYTAFTKYPYAFNYWGQGTQVTVSS | high polyreactivity
QVQLVESGGGLVQAGGSLRLSCAASGNIFTQYGMGWYRQAPGKERELVAAISRRGGSTYYADSVKGRFTISRDNAKNTVYLQMNSLNPEDTAVYYCARRTNRPPWGFEYWGQGTQVTVSS | high polyreactivity
QVQLVESGGGLVQAGGSLRLSCAASGNIFVVNAMGWYRQAPGIERELVAAITVSGGSTYYADSVKGRFTISRDNAKNTVYLQMNRLKPEDTAVYYCNAYYWHDNWDIELGKFDYWGQGTQVTVSS | low polyreactivity
QVQLVESGGGLVQAGGSLRLSCAASGNIFWSNAMGWYRQAPGKERELVAGITSSTGSTYYADSVKGRFTISRDNAKNTVYLQMNSLKPEDTAVYSCAARYRYYPVTTRGYYWGQGTQVTVSS | high polyreactivity
QVQLVESGGGLVQAGGSLRLSCAASGNIIDANAMGWYRQAPGKERELVAAITSSGGSTYYADSVKGRFTISRDNANNTVYLQMNSLKPEDTAVYYCAKSHAIYYWWDESWGHGTQVTVSS | low polyreactivity
QVQLVESGGGLVQAGGSLRLSCAASGNIIVFYAMGWYRQAPGKEREFVAAITSGGSTNYADSVKGRFTISRDNAKNTVYLQMNSLKPEDTAVYYCAGRQWFSHRRWGGSRYDYWGQGTQVTVSS | high polyreactivity
QVQLVESGGGLVQAGGSLRLSCAASGNIIWGNAMGWYRQAPGKERELVAAISRRSGSTYYADSVKGRFTISRDNAKNTVYLQMNSLKPEDTAVYYCNTAGRVGTYDYWGQGTQVTVSS | high polyreactivity
QVQLVESGGGLVQAGGSLRLSCAASGNILARGYAMGWYRQAPGKERELVAAITFNDGSTYYADSVKGRFTISRDNAKNTVYLQMNSLKPEDTAVYYCAADFSYVYYLYDYWGQGTQVTVSS | low polyreactivity
QVQLVESGGGLVQAGGSLRLSCAASGNILASNAMGWYRQAPGKERELVAAITISGDTTYYADSVKGRFTISRDNAKNTVYLQMNSLKPEDTAVYYCNAVSFIVNGGYDGDYWGQGTQVTVSS | low polyreactivity
QVQLVESGGGLVQAGGSLRLSCAASGNILGYNAMGWYRQAPGKERELVAAISWIGGSTYYADSVKGRFTISRDNAKNTVYLQMNSLKPEDTAVYYCAARRVIYYPAFYYDYYYWGQGTQVTVSS | low polyreactivity
QVQLVESGGGLVQAGGSLRLSCAASGNILGYNAMGWYRQAPGKERELVAAISWIGGSTYYADSVKGRFTISRDNAKNTVYLQMNSLKPEDTAVYYCAARYRTYFTYEFWGQGTQVTVSS | low polyreactivity
QVQLVESGGGLVQAGGSLRLSCAASGNILPSNAMGRYREAPGKEWELVAAITWSVGRTYYADSVKGRFTISRDNAKYTVYLQMNSLKPEDTAVYYCAADDYWDDVYYYVTGSTGYDYWGQGTQVTVSS | low polyreactivity
QVQLVESGGGLVQAGGSLRLSCAASGNILWFNAMGWYRQAPGKERELVASITSSGGRTYYADSVKGRFTISRDNAKNTVYLQMNSLKPEETAVYYCAAEYYYGWTYSGGLGFLGYNYWGQGTQVTVSS | low polyreactivity
QVQLVESGGGLVQAGGSLRLSCAASGNIRYYAMGWYRQAPGKERELVAAITRRSGNTYYADSVKGRFTISRDNAKNTVYLQMNSLKPEDTAVYYCAVVLYTYLTPYYEMDYWGQGTQVTVSS | high polyreactivity
QVQLVESGGGLVQAGGSLRLSCAASGNNFETNAMGWYRQAPGKERELVAAISASGGSTYYADSVKGRFTISRDYAKNTVYLQMNSLKPEDTAVYYCAARRAVRLYYWGQGTQVTVSS | high polyreactivity
QVQLVESGGGLVQAGGSLRLSCAASGNNFSAYAMGWYRQAPGKERELVATITSGGRTYYADSVKGRFTISRDNAKNTVYLQMNSLKPEDTAVYYCAADGPYYSPYYYWGQGTQVTVSS | low polyreactivity
QVQLVESGGGLVQAGGSLRLSCAASGNNLRYYAMGWYRQAPGKERELVAAITSSGGSTYYADSVKGRFTISRDNAKNTVYLKMNSLKPEDTAVYYCAAVFSYSRYNYWGQGTQVTVSS | high polyreactivity
QVQLVESGGGLVQAGGSLRLSCAASGNTFAGNAMGWYRLAPGKERELVAAISYSGGSTYYADSVKGRFTISRDNAKNNVYLQMNSLKPEDTAVYYCNAPQPGNGRTRSRYYYWGQGTQVTVSS | high polyreactivity
QVQLVESGGGLVQAGGSLRLSCAASGNTFDFYAMGWYRQAPGKEREFVAAISNGGSTTYADSVKGRFTISRDNAKNTVYLQMNSLKPEDTAVYYCAADPRNAEYDDASMDYWGQGTQVTVSS | high polyreactivity
QVQLVESGGGLVQAGGSLRLSCAASGNTFDIYAMGWYRQAPGKERELVAAISSSGGSTYYADSVKGRFTISRDNAKNTVYLQMNSLKPEDTAVYYFNARHRQWARGYWGQGTQVTVSS | high polyreactivity
